Results taken from US20100240578A1 (priority 2006, published 2010).
Where two headings read alike, the source gives them in different places.

How the values were obtained:
Format in all cases: cell-based, avian influenza A (H5N1)
[1] = test system: bird H5N1 influenza virus strain Duck/MN/1525/81
[2] = test system: bird H5N1 influenza virus strain Duck/MN/1525/81; remark: listed apart in the source
[3] = test system: bird H5N1 influenza virus strain Gull/PA/4175/83
[4] = test system: bird H5N1 influenza virus strain Gull/PA/4175/83; remark: listed apart in the source
[5] = test system: humanized H5N1 influenza virus strain Hong Kong/491/1997
[6] = test system: humanized H5N1 influenza virus strain Hong Kong/491/1997; remark: listed apart in the source
[7] = test system: humanized H5N1 influenza virus strain Hong Kong/213/2003
[8] = test system: humanized H5N1 influenza virus strain Hong Kong/213/2003; remark: listed apart in the source
[9] = test system: humanized H5N1 influenza virus strain Vietnam/1203/2004H
[10] = test system: humanized H5N1 influenza virus strain Vietnam/1203/2004H; remark: listed apart in the source
[11] = test system: humanized H5N1 influenza virus strain Vietnam/1203/2004H; remark: listed apart in the source
[12] = test system: all tested strains of H5N1

B1: Cyanovirin-N (protein, listed as Nostoc ellipsosporum)
chain: LGKFSQTCYNSAIQGSVLTSTCERTNGGYNTSSIDLNSVIENVDGSLKWQPSNFIETCRNTQLAGSSELAAECKTRAQQFVSTKINLDDHIANIDGTLKYE
EC90 [1]: 0.7 mg/L | EC50 [2]: 0.5 mg/L | IC50 [2]: 2 mg/L | EC90 [3]: 0.1 mg/L | EC50 [4]: 0.1 mg/L | IC50 [4]: 3 mg/L | activity against the strain (in words) [4]: moderately active | EC90 [5]: 0.1 mg/L | EC50 [6]: <0.0032 mg/L | IC50 [6]: 3 mg/L | activity against the strain (in words) [6]: moderately active | IC50 [7]: >1 mg/L | IC50 [8]: >1 mg/L | activity against the strain (in words) [8]: highly active | EC90 [9]: 0.2 mg/L | activity against the strain (in words) [10]: moderately active | EC50 [11]: 0.03 mg/L | IC50 [11]: >1 mg/L | activity against all tested strains of H5N1 (in words) [12]: active
